Reference: doi:10.1101/2020.01.12.903617, “The peptide sensor motif stabilizes the outward-facing conformation of TmrAB” (bioRxiv, 2020)
No end group written: not given here. fluorescein = fluorescein label attached to the Cys side chain

Experiments:
[1] = biological target: T1, WT TmrAB, heterodimeric peptide exporter from Thermus thermophilus (Thermus thermophilus, UniProt Q72J05 1-600; Q72J04 1-578); assay: fluorescence polarisation; 1.7 uM TmrAB with 50 nM RRY(C^Fluorescein)KSTEL in SEC buffer (20 mM HEPES, 150 mM NaCl, pH 7, 0.05% ß-DDM), 15 minutes on ice, in the absence or presence of 5 mM ATP and 10 mM MgCl2; read at 25°C (the results say 4°C); signal normalized to WT without ATP; conditions: both partners purified
T1 construct: TmrA, Thermus thermophilus, the chain of TmrAB with the canonical Walker B motif; TmrB, Thermus thermophilus, the chain of TmrAB with the non-canonical Walker B motif; TmrAB template in pet22b; also called wild-type TmrAB
T1 sequence 1: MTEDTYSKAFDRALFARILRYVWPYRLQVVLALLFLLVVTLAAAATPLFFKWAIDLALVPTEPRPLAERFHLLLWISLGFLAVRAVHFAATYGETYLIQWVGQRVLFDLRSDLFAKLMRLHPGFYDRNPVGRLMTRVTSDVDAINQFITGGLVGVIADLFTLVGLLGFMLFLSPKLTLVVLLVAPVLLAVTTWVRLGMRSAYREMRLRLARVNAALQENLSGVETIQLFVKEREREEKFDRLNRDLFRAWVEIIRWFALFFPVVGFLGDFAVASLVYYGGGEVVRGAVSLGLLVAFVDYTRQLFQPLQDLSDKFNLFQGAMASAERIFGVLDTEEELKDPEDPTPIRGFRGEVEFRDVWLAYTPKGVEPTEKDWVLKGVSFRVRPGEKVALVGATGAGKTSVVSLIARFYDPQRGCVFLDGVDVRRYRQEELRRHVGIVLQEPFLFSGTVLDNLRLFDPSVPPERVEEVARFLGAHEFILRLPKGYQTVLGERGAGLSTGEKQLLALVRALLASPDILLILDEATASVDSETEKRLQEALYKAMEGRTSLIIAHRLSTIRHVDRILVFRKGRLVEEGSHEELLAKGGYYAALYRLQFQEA
T1 sequence 2: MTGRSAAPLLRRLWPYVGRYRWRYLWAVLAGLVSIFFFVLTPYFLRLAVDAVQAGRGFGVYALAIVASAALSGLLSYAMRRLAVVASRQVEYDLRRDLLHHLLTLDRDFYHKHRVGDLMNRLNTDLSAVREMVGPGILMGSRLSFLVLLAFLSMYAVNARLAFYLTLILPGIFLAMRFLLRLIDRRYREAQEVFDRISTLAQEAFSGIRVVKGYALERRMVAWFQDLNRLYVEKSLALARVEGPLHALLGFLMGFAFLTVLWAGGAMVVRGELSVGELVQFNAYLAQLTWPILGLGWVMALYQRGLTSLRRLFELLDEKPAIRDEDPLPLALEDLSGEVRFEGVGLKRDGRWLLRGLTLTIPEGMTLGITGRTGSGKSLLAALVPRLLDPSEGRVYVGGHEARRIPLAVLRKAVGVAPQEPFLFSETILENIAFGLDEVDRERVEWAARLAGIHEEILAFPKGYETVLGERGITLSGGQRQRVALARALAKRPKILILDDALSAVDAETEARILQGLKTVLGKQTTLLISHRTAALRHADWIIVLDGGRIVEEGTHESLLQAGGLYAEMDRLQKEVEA

[2] = biological target: T2, TmrAB R121A^TmrB (Thermus thermophilus, UniProt Q72J05 1-600; Q72J04 1-578, R121A); assay: as above; conditions: both partners purified
T2 construct: TmrA, Thermus thermophilus, the chain of TmrAB with the canonical Walker B motif; TmrB, Thermus thermophilus, the chain of TmrAB with the non-canonical Walker B motif
T2 sequence 1: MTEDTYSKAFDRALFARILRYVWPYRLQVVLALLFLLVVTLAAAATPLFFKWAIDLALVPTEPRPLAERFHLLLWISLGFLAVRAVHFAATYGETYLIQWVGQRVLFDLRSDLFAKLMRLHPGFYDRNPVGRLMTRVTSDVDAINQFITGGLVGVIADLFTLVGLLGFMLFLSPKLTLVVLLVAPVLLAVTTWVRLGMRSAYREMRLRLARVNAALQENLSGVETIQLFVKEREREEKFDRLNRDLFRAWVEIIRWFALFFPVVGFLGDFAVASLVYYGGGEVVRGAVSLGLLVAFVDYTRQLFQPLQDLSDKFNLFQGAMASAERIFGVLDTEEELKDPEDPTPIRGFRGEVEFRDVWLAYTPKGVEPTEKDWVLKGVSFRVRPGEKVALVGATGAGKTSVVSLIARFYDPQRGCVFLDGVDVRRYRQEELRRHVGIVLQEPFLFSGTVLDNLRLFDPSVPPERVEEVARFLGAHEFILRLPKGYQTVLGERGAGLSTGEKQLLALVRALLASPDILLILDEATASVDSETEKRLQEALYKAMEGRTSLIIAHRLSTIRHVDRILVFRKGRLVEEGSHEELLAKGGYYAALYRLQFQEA
T2 sequence 2: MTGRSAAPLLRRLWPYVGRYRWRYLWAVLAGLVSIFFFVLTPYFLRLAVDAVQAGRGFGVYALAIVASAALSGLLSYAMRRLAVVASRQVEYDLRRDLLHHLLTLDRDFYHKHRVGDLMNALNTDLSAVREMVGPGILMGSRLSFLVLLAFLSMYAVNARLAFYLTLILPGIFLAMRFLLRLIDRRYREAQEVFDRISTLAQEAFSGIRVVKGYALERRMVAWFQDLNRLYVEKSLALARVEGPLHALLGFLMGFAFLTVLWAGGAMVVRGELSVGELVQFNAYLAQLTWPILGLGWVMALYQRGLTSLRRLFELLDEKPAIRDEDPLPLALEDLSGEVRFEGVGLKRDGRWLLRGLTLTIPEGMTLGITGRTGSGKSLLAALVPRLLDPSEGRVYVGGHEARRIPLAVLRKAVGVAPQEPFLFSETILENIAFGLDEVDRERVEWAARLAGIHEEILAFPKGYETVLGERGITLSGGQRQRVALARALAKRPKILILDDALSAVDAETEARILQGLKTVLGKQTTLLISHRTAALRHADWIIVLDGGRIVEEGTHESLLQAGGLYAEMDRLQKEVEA

B1: fluorescent transport substrate peptide RRY(C^Fluorescein)KSTEL (peptide)
peptide: RRYC(fluorescein)KSTEL
notes: fluorescein-labelled transport substrate peptide of TmrAB; also called fluorescently-labeled peptide substrate; peptide substrate; source: bought: Genscript
- binding result [1]: binds
- binding result [2]: binds
